Test results published in publication PMC5098211.

Experiments:
[1] = biological target: human NaV1.5 voltage-gated sodium channel (human) (UniProt Q14524)
[2] = biological target: human NaV1.5 voltage-gated sodium channel (human) (UniProt Q14524); remark: listed apart in the source

UniProt Q14524, sequence (Q14524 whole entry): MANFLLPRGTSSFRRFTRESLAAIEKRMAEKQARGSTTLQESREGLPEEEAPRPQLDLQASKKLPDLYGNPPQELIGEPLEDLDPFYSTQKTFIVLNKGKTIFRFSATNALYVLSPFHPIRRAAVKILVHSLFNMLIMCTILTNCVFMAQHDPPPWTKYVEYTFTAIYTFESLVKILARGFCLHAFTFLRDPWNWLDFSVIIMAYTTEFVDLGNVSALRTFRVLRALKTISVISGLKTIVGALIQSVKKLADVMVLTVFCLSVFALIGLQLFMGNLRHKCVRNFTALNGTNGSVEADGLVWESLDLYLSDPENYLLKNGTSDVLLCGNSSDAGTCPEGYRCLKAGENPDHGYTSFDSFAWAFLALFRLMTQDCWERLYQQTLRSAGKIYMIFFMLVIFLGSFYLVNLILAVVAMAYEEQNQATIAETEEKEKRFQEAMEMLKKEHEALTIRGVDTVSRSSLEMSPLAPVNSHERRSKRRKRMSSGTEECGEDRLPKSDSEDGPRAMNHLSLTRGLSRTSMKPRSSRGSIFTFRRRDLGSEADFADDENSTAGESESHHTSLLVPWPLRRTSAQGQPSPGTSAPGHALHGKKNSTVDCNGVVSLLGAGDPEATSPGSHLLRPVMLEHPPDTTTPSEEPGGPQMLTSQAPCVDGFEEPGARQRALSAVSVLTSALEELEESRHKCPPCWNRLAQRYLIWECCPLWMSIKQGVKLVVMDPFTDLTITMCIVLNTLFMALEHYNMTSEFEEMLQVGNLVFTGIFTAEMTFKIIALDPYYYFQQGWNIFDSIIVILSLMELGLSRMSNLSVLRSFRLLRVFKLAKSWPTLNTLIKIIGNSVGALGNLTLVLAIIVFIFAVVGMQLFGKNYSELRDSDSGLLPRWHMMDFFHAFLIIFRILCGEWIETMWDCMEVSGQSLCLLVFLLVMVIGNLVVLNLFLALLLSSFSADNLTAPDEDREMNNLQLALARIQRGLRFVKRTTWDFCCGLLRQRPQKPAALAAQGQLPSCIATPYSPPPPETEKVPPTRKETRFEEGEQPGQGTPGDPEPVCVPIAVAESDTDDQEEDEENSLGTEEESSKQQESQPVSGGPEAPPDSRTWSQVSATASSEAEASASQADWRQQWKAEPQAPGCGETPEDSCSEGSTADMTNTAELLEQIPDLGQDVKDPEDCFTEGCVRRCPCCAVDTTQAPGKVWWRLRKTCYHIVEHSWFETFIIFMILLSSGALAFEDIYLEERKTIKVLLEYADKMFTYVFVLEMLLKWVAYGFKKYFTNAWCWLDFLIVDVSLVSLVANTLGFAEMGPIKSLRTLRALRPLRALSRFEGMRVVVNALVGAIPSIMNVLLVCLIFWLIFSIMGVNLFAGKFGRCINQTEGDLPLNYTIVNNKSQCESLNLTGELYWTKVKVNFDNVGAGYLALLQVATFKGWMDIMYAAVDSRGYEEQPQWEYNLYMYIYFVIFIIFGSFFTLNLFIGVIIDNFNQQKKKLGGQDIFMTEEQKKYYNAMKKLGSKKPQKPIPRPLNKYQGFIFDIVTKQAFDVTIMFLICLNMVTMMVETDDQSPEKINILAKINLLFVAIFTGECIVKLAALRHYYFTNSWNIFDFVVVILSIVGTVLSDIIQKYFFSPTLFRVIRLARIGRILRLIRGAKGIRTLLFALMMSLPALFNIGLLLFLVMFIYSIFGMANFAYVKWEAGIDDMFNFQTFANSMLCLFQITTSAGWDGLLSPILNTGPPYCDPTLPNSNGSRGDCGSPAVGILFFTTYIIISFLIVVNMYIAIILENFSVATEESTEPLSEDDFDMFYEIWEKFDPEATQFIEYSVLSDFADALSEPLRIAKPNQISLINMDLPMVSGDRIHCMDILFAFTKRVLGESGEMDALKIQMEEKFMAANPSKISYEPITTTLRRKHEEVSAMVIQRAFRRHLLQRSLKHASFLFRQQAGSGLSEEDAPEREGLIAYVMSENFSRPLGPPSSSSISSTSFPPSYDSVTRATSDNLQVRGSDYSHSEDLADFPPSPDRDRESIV

FS50, salivary protein from the flea Xenopsylla cheopis (from UniProt A2IAD2 20-96) (natural protein)
IC50 of inhibition of NaV1.5 currents, whole-cell patch clamp on HEK 293T cells, FS50 from 0.1 nM to 100 μM [1]: 1580 nM | reduction of the control peak amplitude of the NaV1.5 current at 10 μM FS50, whole-cell patch clamp on HEK 293T cells (at 30 μM the remaining inward current was eliminated completely) [1]: 82.5% | time constant of inhibition of NaV1.5 currents at 5 μM FS50, whole-cell patch clamp on HEK 293T cells [2]: 15 s
